In article PMC3448684, “IP-FCM Measures Physiologic Protein-Protein Interactions Modulated by Signal Transduction and Small-Molecule Drug Inhibition” (PLoS ONE, 2012):

Key:
IL-2 = molecular target: T1, IL-2 (Homo sapiens, UniProt P60568, C145S); experiment: IP-FCM bead assay of the IL-2:CD25 interaction with recombinant proteins (also with endogenous CD25 captured from PBMC lysate); assay type: biochemical
T1 construct: gene IL2; recombinant human IL-2 (Proleukin); with CD25 (IL-2 receptor α-chain; recombinant human CD25-Fc chimera, or endogenous CD25 from PBMC lysate)
T1 sequence (P60568 22-153 C145S): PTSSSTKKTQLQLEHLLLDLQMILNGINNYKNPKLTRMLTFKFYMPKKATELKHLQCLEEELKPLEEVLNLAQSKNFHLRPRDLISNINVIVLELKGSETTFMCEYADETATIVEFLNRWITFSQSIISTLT
T1 sequence (P01589 22-272 partner): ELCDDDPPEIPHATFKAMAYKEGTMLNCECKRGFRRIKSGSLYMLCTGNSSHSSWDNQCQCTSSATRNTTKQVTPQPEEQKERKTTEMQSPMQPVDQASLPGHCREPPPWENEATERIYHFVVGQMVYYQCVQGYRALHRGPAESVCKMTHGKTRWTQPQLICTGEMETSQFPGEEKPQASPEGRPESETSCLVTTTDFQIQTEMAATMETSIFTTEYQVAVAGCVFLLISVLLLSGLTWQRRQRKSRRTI

[1] = molecular target: recombinant human CD25-Fc chimera (human) (UniProt P01589); experiment: IP-FCM (capture on antibody beads, detection by flow cytometry); CD25-Fc captured on anti-CD25 CML beads overnight, washed; IL-2 (1,000 U/ml) added for 1 h with or without Ro-26-4550 or control compounds; washed, probed with anti-IL-2
recombinant human CD25-Fc chimera (human), sequence (P01589 22-240, change not shown): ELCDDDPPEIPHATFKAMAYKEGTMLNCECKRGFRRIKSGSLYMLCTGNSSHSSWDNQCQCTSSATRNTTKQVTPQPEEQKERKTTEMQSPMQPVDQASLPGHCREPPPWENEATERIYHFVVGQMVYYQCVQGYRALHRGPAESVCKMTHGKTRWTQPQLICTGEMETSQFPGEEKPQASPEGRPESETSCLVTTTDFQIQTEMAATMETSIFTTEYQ

[2] = molecular target: recombinant human CD25-Fc chimera (human) (UniProt P01589); experiment: IP-FCM (capture on antibody beads, detection by flow cytometry); data not shown: as a4 with recombinant CD25, but 500 U/ml or 10,000 U/ml IL-2

recombinant human IL-2 (Proleukin), sequence (P60568 21-153): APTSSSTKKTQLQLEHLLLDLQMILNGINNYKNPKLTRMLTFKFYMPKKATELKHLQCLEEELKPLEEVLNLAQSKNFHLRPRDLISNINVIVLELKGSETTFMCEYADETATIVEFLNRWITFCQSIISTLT

Row | Substance | % reduction of IL-2:CD25 binding at 10 μM (Methods; printed as 10 mM in Results) (IL-2) | percent reduction of binding with Ro-26-4550 (10 mM [sic]), 1,000 U/ml IL-2 [1] [%] | percent reduction of binding with Ro-26-4550, 10,000 U/ml IL-2 [2] [%]
1 | Ro-26-4550 [R26] | 62 % reduction of IL-2:CD25 binding at 10 µM (Methods; printed as 10 mM in Results) | – | –
2 | recombinant human IL-2 (Proleukin) (from UniProt P60568 21-153) (ligand) | – | 62 | 44
